Measured values published in patent publication US20120251453A1 (SANFORD BURNHAM MEDICAL RESEARCH INSTITUTE, published 2012).
No end group written: not given here. Alexa Fluor 488 C5‑maleimide = fluorescent dye linked to the Cys thiol through maleimide

Key:
[1] = target: T1, annexin 1 (Anxa1) expressed on mouse endothelial cells (F-2 cells; tumor vasculature in mice) (mouse, UniProt P10107 2-346); test: intravital fluorescence of LLC tumors in a dorsal skinfold chamber after intravenous injection; signal intensity over time, with or without pre-injected rabbit IgG or anti-Anxa1 antibody
T1 construct: whole, on cells; Endogenous protein on cells; also called Anxa1 expressed on the endothelial cell surface
T1 sequence (looked up): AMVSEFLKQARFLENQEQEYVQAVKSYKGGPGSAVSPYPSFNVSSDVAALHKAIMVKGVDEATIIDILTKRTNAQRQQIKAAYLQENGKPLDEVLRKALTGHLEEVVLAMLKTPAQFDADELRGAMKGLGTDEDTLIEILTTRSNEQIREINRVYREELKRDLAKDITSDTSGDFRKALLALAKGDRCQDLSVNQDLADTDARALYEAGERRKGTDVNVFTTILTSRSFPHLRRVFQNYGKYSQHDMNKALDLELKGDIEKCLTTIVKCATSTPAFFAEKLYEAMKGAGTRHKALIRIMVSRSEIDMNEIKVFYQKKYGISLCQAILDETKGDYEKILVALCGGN
Experimental: (A) Lewis lung carcinoma (LLC) tumors were allowed to vascularize for 3 days in dorsal skinfold chamber window in nude mice. Mice were injected with 100 μl of 50 μM IF7-A488 (row a) or RQ7-A488 (row b) in 5% glucose in water. IF7-A488 was also injected to tumor-bearing mice pre-injected with rabbit IgG (row c) or with rabbit anti-Anxa1 antibody (row d). Fluorescence signals were monitored under a fluorescence microscope up to 40 min post-injection. From left: bright field before injection, and fluorescence at 0, 5, 20 min after injection. Far right, the boundary of tumor and stroma at 20 min (Scale bar=500 μm). (B) Quantitative analysis of fluorescence during the course of the analysis shown in A. The line with the highest signal at 10 minutes represents IF&-A488. The line with the second highest signal at 10 minutes represents the control IgG. […] Intensity of fluorescence was determined by Image J program. […] (C) Fluorescence micrographs of tumor sections 20 min after injection with IF7-A488 and RQ7-A488. […] IF7-A488 signals (upper row) were detected on endothelial cells of tumor vasculature (Scale bar=50 μm), while no RQ7-A488 signal was detected (lower row). […] Arrows indicate fluorescence. (D) Fluorescence remained in circulation in mice with or without subcutaneous B16 tumors. IF7-A488 was injected intravenously through the tail vein, and fluorescence remaining in circulation was measured. […]

[2] = target: recombinant Anxa1-His6 protein; test: isothermal titration calorimetry, peptide injected into Anxa1-His protein, 23° C.; average over two Anxa1-His preparations
[3] = target: T1, annexin 1 (Anxa1) expressed on mouse …; test: fluorescence microscopy of mouse endothelial F-2 cells cultured in vitro
Experimental: F-2 cells cultured on a filter of trans well insert was added with IF7C(RR)-conjugated FITC-poly-L-lysine to allow the reagent being bound to apical cell surface of F-2 cells. After washing the monolayer with medium, insert was placed in wells containing medium at 37° C. or at 4° C. Fluorescence moved to the lower chamber of insert was measured. C. Targeting and penetration of intravenously injected IF7C(RR)-conjugated FITC-poly-L-lysine in the B16 tumor in vivo in the mouse. Tissue section was immunostained for endothelial cell marker CD31.
Since IF7-SN38 is highly hydrophobic, there was a concern regarding a possibility that IF7-SN38 becomes insoluble after intravenous injection. Such may reduce the activity of IF7-SN38 in vivo. To increase the solubility of IF7-SN38 in aqueous environment, two arginine residues were added to IF7 after the cysteine residue. Thus IFLLWQR-C-RR (SEQ ID NO:17) or IF7C(RR) was synthesized. When IF7C(RR) was conjugated to FITC-poly-L-lysine, IF7C(RR)-conjugated FITC-poly-L-lysine bound to the surface of Anxa1-expressing mouse endothelial F-2 cells (FIG. 12A). […] When IF7C(RR)-conjugated FITC-poly-L-lysine was added to F-2 cells grown on a filter of the insert for trans well chamber, washed and then incubated in a medium at 37° C. or at 4° C., fluorescence migrated to the lower chamber from cells incubated at 37° C. but not at 4° C. […]

[4] = target: T1, annexin 1 (Anxa1) expressed on mouse …; test: intravital fluorescence of LLC tumors in a dorsal skinfold chamber after intravenous injection; signal intensity over time
Experimental: The line with the lowest signal at 10 minutes represents RQ7-A488. Intensity of fluorescence was determined by Image J program. Error bars represent SD (n=3). Asterisks show statistical significance or p<0.0001, t test. (C) Fluorescence micrographs of tumor sections 20 min after injection with IF7-A488 and RQ7-A488. From left: IF7-A488, DAPI, merged, and bright field. IF7-A488 signals (upper row) were detected on endothelial cells of tumor vasculature (Scale bar=50 μm), while no RQ7-A488 signal was detected (lower row). Experiments were repeated 3 times, and representative results are shown. Arrows indicate fluorescence. (D) Fluorescence remained in circulation in mice with or without subcutaneous B16 tumors. IF7-A488 was injected intravenously through the tail vein, and fluorescence remaining in circulation was measured. […]
A Lewis lung carcinoma (LLC) tumor was produced in a donor nude mouse by subcutaneous injection, and small piece of tumor (less than 1 mm³) was transplanted to a dorsal skinfold chamber in a recipient nude mouse (8-10 weeks female Balb/c nude) as described (Lehr et al., Am J Pathol 1993; 143:1055-62; Oh et al., Nat Biotechnol 2007; 25:327-37). […] Signal intensity in the tumor from 0 min to 40 min was measured by Image J (NIH, Maryland). After 10 min, irradiation of specimens by a UV lamp was limited only to times when photos were taken to avoid fluorescence bleaching. […]

[5] = target: T1, annexin 1 (Anxa1) expressed on mouse …; test: in vivo phage targeting in B16 tumor-bearing mice pre-injected with control rabbit IgG or anti-Anxa1 antibody; colonies recovered from tissue homogenates
From the text: FIGS. 1A-1H show the essential role of annexin 1 (Anxa1) in tumor growth and identification of a peptide sequence with tumor vasculature targeting activity in vivo. A and B. Growth of B16 tumors subcutaneously injected into Anxa1(+/−) and Anxa1(−/−) mutant mice. C. Histology of B16 tumors produced in Anxa1(+/−) and Anxa1(−/−) mice. Each scale bar represents 2.00 mm. D. Immunohistochemistry of B16 tumors for CD31 showing endothelial cells and vasculature. Each scale bar represents 200 μm. E. In vivo phage targeting in B16 tumor-bearing mice. Numbers of transformed colonies recovered from the tumor or lung were determined. […] F. In vivo tumor and organ targeting activity of IFLLWQR (SEQ ID NO:2) displaying phage. Phage was injected into B16 tumor bearing mice pre-injected with anti-Anxa1 antibody or with control rabbit IgG. G. In vitro plate assay for binding of IF7-A488 (upper line) and control RQ7-A488C (lower line) to recombinant […] protein produced by bacteria. H. Effect of IF7 (upper line) and control RQ7 (lower line) on binding of FITC-labeled polyacrylamide-LeA oligosaccharide to Anxa1-His₆ protein.
Mouse melanoma B16F1 cells (2×10⁵ cells/100 μl PBS) were injected subcutaneously into the dorsal flank of C57BL/6 female mice (8-10 weeks old). […] Colonies appearing on an agar plate after culturing at 37° C. for 20 hours were counted.

Binder: IFLLWQRC(Alexa Fluor 488 C5‑maleimide) (Synthetic peptide (GenScript)) [IF7-A488 (chemically synthesized IF7 conjugated with fluorescent Alexa 488)]
- binding result [1]: binds

Binder: IFLLWQRKKKC [IF7K3C peptide (…)]
- Kd [2]: 11 µM

B1: IF7C(RR)-conjugated FITC-poly-L-lysine (peptide, not shown: large carriers)
peptide: IFLLWQRCRR
modifications: also: conjugated to FITC-poly-L-lysine, site and chemistry not given here
notes: Polymer conjugate; also called IF7C(RR)-conjugated FITC-polylysine; IF7C(RR)-conjugated FITC-poly-lysine
- binding result [3]: binds

Binder: RQWLLFI (also: Alexa 488 conjugated, site of attachment not given here, also called RQ7-A488C; control RQ7-A488) [RQ7-A488 (Alexa 488 conjugated with RQWLLFI or reverse IF7)]
- binding result [4]: no binding

Binder: IFLLWQR (peptide, not shown: large carriers, also called IF7 phage; clone #2) [IFLLWQR (SEQ ID NO:2) displaying phage]
- binding result [5]: binds
